Data: US7939307B2, “Deletion mutant of multi-copper oxidase and its use in dyeing” (National University Corporation Kanazawa University, priority 2005, dated 2011)

Key:
[1] = Oxidative polymerization activity for various substrates (Test Example 2); type: biochemical; details: pH 5.5
Protocol: For substrates other than catechin, lignin (derived from rice), and lignin (derived from conifer), each substrate was dissolved in DMSO, and then dissolved in an ion-exchange water, to give a 1 mM DMSO (1.0%) aqueous solution.
For catechin, lignin (derived from rice), and lignin (derived from conifer), each substrate was dissolved in DMSO, and then dissolved in an ion-exchange distilled water, to give a 2 mg/mL DMSO (1.0%) aqueous solution.
(§1) For the following method, an acetate buffer solution (pH 5.5) was used as the buffer solution.
0.88 mL of a 0.1 M buffer solution and 0.1 mL of the substrate solution were mixed in a cuvette (1.0 mL quartz cell, manufactured by SHIMADZU), 0.02 mL of an aqueous solution of mCueO (1) was added thereto, and mixed by inversion. The change in absorbance at each wavelength (measurement wavelength shown in Table 2) from 0 to 30 seconds was measured using a spectrophotometer (UV-2459, manufactured by SHIMADZU).
For comparison, the oxidative polymerization activity of wild-type CueO was measured in the same manner.

[2] = Oxidative polymerization activity for representative substrates of laccase (Test Example 1); type: biochemical; details: pH 5.5
Protocol: 2,6-dimethoxyphenol, p-phenylenediamine, 2,2′-azino-bis(3-ethylbenzothiazoline-6-sulfonate) (ABTS), 2-methoxyphenol, and catechol were dissolved in an ion-exchange distilled water, respectively, to each give a 50 mM aqueous solution.
4-hydroxyindole and p-aminophenol were dissolved in dimethylsulfoxide (DMSO), respectively, to each give a 50 mM DMSO solution.
o-aminophenol was dissolved in DMSO, and then dissolved in an ion-exchange distilled water, to give a 50 mM DMSO (10%)-aqueous solution.
1-nitroso-2-naphthol-3,6-disulfonic acid disodium (NNS) was dissolved in an ion-exchange distilled water to give a 5 mM aqueous solution.
Bilirubin was dissolved in DMSO to give a 0.5 mM DMSO solution.
Syringaldazine was dissolved in ethanol to give a 5 mM ethanol solution.
L-tyrosine was dissolved in a 0.1 M phosphate buffer solution (pH 6.5), to give a 1 mM solution.
as §1
For the substrates other than NNS and bilirubin, 0.88 mL of a 0.1 M buffer solution and 0.1 mL of the substrate solution were mixed in a cuvette (1.5 mL UV disposable cell, […], and mixed by inversion. The change in absorbance at each wavelength (measurement wavelength shown in Table 1) from 0 to 30 seconds was measured using a spectrophotometer (UV-2459, manufactured by SHIMADZU).
For NNS and bilirubin, 0.96 mL of a 0.1 M buffer solution and 0.02 mL of the substrate solution were mixed in a cuvette (1.5 mL UV disposable cell, manufactured by TOP), 0.02 mL of an aqueous solution of mCueO (1) was added thereto, and mixed by inversion. The change in absorbance at each wavelength (measurement wavelength shown in Table 1) from 0 to 30 seconds was measured using a spectrophotometer (UV-2459, manufactured by SHIMADZU).
For comparison, the oxidative polymerization activity of an enzyme prepared by adding a histidine tag to the C-terminus of wild-type mature CueO (SEQ ID NO: 8, hereinafter, simply referred to as ‘wild-type CueO’) was measured in the same manner. […] The change in absorbance in 30 seconds which is measured in the above manner was given in terms of change in absorbance in 1 minute (same applies below).

[3] = substrate o-Aminophenol, 420 nm
[4] = substrate p-Phenylenediamine, 470 nm

B1: Wild-type CueO: enzyme prepared by adding a histidine tag to the C-terminus of wild-type mature CueO derived from Escherichia coli (protein, listed as Escherichia coli)
chain: MQRRDFLKYSVALGVASALPLWSRAVFAAERPTLPIPDLLTTDARNRIQLTIGAGQSTFGGKTATTWGYNGNLLGPAVKLQRGKAVTVDIYNQLTEETTLHWHGLEVPGEVDGGPQGIIPPGGKRSVTLNVDQPAATCWFHPHQHGKTGRQVAMGLAGLVVIEDDEILKLMLPKQWGIDDVPVIVQDKKFSADGQIDYQLDVMTAAVGWFGDTLLTNGAIYPQHAAPRGWLRLRLLNGCNARSLNFATSDNRPLYVIASDGGLLPEPVKVSELPVLMGERFEVLVEVNDNKPFDLVTLPVSQMGMAIAPFDKPHPVMRIQPIAISASGALPDTLSSLPALPSLEGLTVRKLQLSMDPMLDMMGMQMLMEKYGDQAMAGMDHSQMMGHMGHGNMNHMNHGGKFDFHHANKINGQAFDMNKPMFAAAKGQYERWVISGVGDMMLHPFHIHGTQFRILSENGKPPAAHRAGWKDTVKVEGNVSEVLVKFNHDAPKEHAYMAHCHLLEHEDTGMMLGFTV
Activity (U) ([1]; substrate 1,3-Dihydroxynaphthalene, 450 nm): 2.53 U | Activity (U) ([1]; substrate 1,5-Dihydroxynaphthalene, 470 nm): 0.78 U | Activity (U) ([1]; substrate 1-Naphthol, 405 nm): 0.00 U | Activity (U) ([1]; substrate 2,4-Diaminophenol dihydrochloride, 470 nm): 69.83 U | Activity (U) ([1]; substrate 2,5-Diaminotoluene sulfate, 470 nm): 44.55 U | Activity (U) ([1]; substrate 2,6-Dihydroxynaphthalene, 405 nm): 0.00 U | Activity (U) ([1]; substrate 2,6-Dimethoxy-4-metylphenol, 405 nm): 0.00 U | Activity (U) ([1]; substrate 2,6-Dimethoxyphenol, 470 nm): 1.43 U | Activity (U) ([1]; substrate 2-Chloro-1,4-phenylenediamine, 450 nm): 3.10 U | Activity (U) ([1]; substrate 2-Methoxyphenol, 450 nm): 0.00 U | Activity (U) ([1]; substrate 4-Hydroxyindole, 405 nm): 3.33 U | Activity (U) ([1]; substrate 5-Aminoorthocresol, 405 nm): 0.00 U | Activity (U) ([1]; substrate 5-Hydroxyindole, 405 nm): 0.00 U | Activity (U) ([1]; substrate Catechin, 405 nm): 0.00 U | Activity (U) ([1]; substrate Catechol, 405 nm): 0.00 U | Activity (U) ([1]; substrate Gallic acid, 405 nm): 1.78 U | Activity (U) ([1]; substrate Hydroquinone, 405 nm): 0.00 U | Activity (U) ([1]; substrate Lignin (derived from conifer), 450 nm): 0.00 U | Activity (U) ([1]; substrate Lignin (derived from rice), 450 nm): 0.00 U | Activity (U) ([1]; substrate N,N-Dimethyl-p-phenylenediamine, 470 nm): 59.35 U | Activity (U) ([1]; substrate Propyl gallate, 405 nm): 0.00 U | Activity (U) ([1]; substrate Protocatechuic acid, 405 nm): 0.00 U | Activity (U) ([1]; substrate Pyrogallol, 405 nm): 9.44 U | Activity (U) ([1]; substrate Resorcinol, 405 nm): 0.00 U | Activity (U) ([1]; substrate Tolylene-3,4-diamine, 470 nm): 0.00 U | Activity (U) ([1]; substrate Trimethylhydroquinone, 405 nm): 0.00 U | Activity (U) ([1]; substrate m-Aminophenol, 405 nm): 0.00 U | Activity (U) ([1]; substrate m-Phenylenediamine, 405 nm): 0.00 U | Activity (U) [1, 3]: 14.06 U | Activity (U) ([1]; substrate o-Phenylenediamine, 430 nm): 0.00 U | Activity (U) ([1]; substrate p-Aminodiphenylamine, 470 nm): 48.86 U | Activity (U) ([1]; substrate p-Aminophenol, 405 nm): 3.37 U | Activity (U) ([1]; substrate p-Methylaminophenol sulfate, 470 nm): 6.51 U | Activity (U) [1, 4]: 19.55 U | Activity (U) ([2]; substrate 2-Methoxyphenol, 470 nm): 0.00 U | Activity (U) ([2]; substrate ABTS, 420 nm): 40.22 U | Activity (U) ([2]; substrate Bilirubin, 530 nm): 0.53 U | Activity (U) ([2]; substrate Catechol, 400 nm): 0.00 U | Activity (U) ([2]; substrate L-Tyrosine, 490 nm): 0.00 U | Activity (U) ([2]; substrate NNS, 490 nm): 0.00 U | Activity (U) ([2]; substrate Syringaldazine, 530 nm): 4.73 U | Activity (U) [2, 3]: 14.06 U | Activity (U) ([2]; substrate p-Aminophenol, 400 nm): 3.37 U | Activity (U) [2, 4]: 9.70 U
